Experimental data reported in patent US6355473.

What was measured:
Experiment in all cases: cell-based or functional assay
[1] = biological target: human melanocortin receptor 4 (hMCR4), native form (human) (UniProt P32245)
[2] = biological target: All the receptor forms tested (hNocR, Ste2-hNocR, Inv-hNocR, αF-hNocR) in the stp22 strains
αF-hSSTR3 (yeast; human) = biological target: αF-hSSTR3 (yeast; human)
Sequence of αF-hSSTR3 (yeast; human) (P01149 other isoform, or with tags, fused parts or gaps): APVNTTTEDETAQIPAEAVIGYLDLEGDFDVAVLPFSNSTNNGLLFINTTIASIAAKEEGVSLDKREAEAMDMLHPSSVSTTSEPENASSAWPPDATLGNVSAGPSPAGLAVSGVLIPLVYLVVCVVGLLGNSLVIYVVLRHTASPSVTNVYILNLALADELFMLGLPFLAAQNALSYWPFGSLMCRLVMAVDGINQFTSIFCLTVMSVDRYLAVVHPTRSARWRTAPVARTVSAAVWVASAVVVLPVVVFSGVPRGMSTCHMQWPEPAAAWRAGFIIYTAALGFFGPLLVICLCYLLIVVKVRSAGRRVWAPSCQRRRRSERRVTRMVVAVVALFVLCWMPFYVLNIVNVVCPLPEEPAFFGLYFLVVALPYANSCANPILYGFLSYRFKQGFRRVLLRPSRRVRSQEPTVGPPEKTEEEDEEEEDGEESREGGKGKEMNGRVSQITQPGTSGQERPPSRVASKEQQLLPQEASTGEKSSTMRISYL

Sequence of UniProt P32245 (P32245 whole entry): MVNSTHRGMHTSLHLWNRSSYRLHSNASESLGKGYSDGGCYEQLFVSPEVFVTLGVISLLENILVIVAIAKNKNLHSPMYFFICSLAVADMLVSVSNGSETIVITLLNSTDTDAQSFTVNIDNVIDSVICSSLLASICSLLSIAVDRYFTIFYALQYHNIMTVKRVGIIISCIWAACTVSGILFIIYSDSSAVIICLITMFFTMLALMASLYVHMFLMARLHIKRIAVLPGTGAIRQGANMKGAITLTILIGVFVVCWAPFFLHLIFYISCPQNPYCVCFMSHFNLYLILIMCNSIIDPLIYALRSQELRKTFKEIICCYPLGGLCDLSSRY

**Q.** NDP-α-MSH (peptide) was tested. Which Specific ligand-induced levels of β-galactosidase activity (FUS1-lacZ), stp22 strain compared with wild type [1] did it give?
**A.** Its Specific ligand-induced levels of β-galactosidase activity (FUS1-lacZ), stp22 strain compared with wild type is 2 fold.

**Q.** For FGGFTGARKSARKLANQ (peptide, UniProt Q13519 130-146, looked up) [nociceptin], which maximal increase in the levels of β-galactosidase activity (FUS1-lacZ induction), stp22 strains [2] is on record?
**A.** The maximal increase in the levels of β-galactosidase activity (FUS1-lacZ induction), stp22 strains was 10 to 40 fold.

**Q.** Which decrease of EC50 of FUS1-lacZ induction, stp22 strain compared with wild type (αF-hSSTR3 (yeast; human)) does the source give for AGCKNFFWKTFTSC (peptide, UniProt P61278 103-116, looked up) [Somatostatin-14] here?
**A.** Its decrease of EC50 of FUS1-lacZ induction, stp22 strain compared with wild type is 50%.

**Q.** What about the levels of FUS1-lacZ induction (β-galactosidase activity), stp22 strain compared with wild type (αF-hSSTR3 (yeast; human)) of the same molecule?
**A.** The levels of FUS1-lacZ induction (β-galactosidase activity), stp22 strain compared with wild type was 2 fold.
